Assay results published in patent US20240181073A1, “Antibody-Drug Conjugates Comprising an Anti-BCMA Antibody” (Sorrento Therapeutics, Inc., priority 2021, published 2024).
Where a chain is given by its changes, count along the chain named.

B1: BCMA-AB2-3: Compound 3 conjugated with anti-BCMA antibody clone BCA7-2E1 (AB2) (conjugate)
VH: EVQLVESGGGLVKPGGSLRLSCAASGFTSSTAWMSWVRQAPGKGLEWVGRIKSKSDGGTTDYAAPVKGRFTISRDDSKNTLFLQMNSLKTEDTAVYYCAKGGGTYGYWGQGTTVTVSS
VL: QSALTQPASVSGSPGQSVTISCTGTSSDGGGHTYVSWYQQHPGKAPKLMIYDVSNRPSWVSNRFSGSKSGNTASLTISGLQAEDEADYYCGSYTSSGSYVFGTGTKLTVL
B2: anti-BCMA-AB1-Compound 4 (antibody, human IgG1, V domains shown)
VH: B1 VH
VL: B1 VL with A3V, D28A, G29H, T33Y, W59G
modifications: drug-linker Compound 4 on antibody cysteine thiols (C-lock conjugation; positions not stated)
B3: anti-BCMA-AB1-Compound 8 (antibody, human IgG1, V domains shown)
VH: B1 VH
VL: B1 VL with A3V, D28A, G29H, T33Y, W59G
modifications: drug-linker Compound 8 on antibody cysteine thiols (maleimide conjugation; positions not stated)
B4: anti-BCMA-AB1-Compound 7 (antibody, human IgG1, V domains shown)
VH: B1 VH
VL: B1 VL with A3V, D28A, G29H, T33Y, W59G
modifications: drug-linker Compound 7 on antibody cysteine thiols (maleimide conjugation; positions not stated)
B5: anti-BCMA-AB1-Compound 6 (antibody, human IgG1, V domains shown)
VH: B1 VH
VL: B1 VL with A3V, D28A, G29H, T33Y, W59G
modifications: drug-linker Compound 6 on antibody cysteine thiols (C-lock conjugation; positions not stated)
B6: anti-BCMA-AB1-Compound 5 (antibody, human IgG1, V domains shown)
VH: B1 VH
VL: B1 VL with A3V, D28A, G29H, T33Y, W59G
modifications: drug-linker Compound 5 on antibody cysteine thiols (C-lock conjugation; positions not stated)
B7: ADC-52 (conjugate)
VH: B1 VH
VL: B1 VL with A3V, D28A, G29H, T33Y, W59G
B8: ADC-51 (conjugate)
VH: B1 VH
VL: B1 VL with A3V, D28A, G29H, T33Y, W59G
B9: ADC-53 (conjugate)
VH: B1 VH
VL: B1 VL with A3V, D28A, G29H, T33Y, W59G
B10: ADC-50 (conjugate)
VH: B1 VH
VL: B1 VL with A3V, D28A, G29H, T33Y, W59G
B11: anti-BCMA-AB2-Compound 8 (antibody, V domains shown)
VH: B1 VH
VL: B1 VL
modifications: drug-linker Compound 8 on antibody cysteine thiols (positions not stated)
B12: anti-BCMA-AB2-Compound 6 (antibody, V domains shown)
VH: B1 VH
VL: B1 VL
modifications: drug-linker Compound 6 on antibody cysteine thiols (positions not stated)
B13: anti-BCMA-AB2-Compound 7 (antibody, V domains shown)
VH: B1 VH
VL: B1 VL
modifications: drug-linker Compound 7 on antibody cysteine thiols (positions not stated)
B14: anti-BCMA-AB2-Compound 4 (antibody, V domains shown)
VH: B1 VH
VL: B1 VL
modifications: drug-linker Compound 4 on antibody cysteine thiols (positions not stated)
B15: anti-BCMA-AB2-Compound 3 (antibody, V domains shown)
VH: B1 VH
VL: B1 VL
modifications: drug-linker Compound 3 on antibody cysteine thiols (positions not stated)
B16: anti-BCMA-AB2-Compound 5 (antibody, V domains shown)
VH: B1 VH
VL: B1 VL
modifications: drug-linker Compound 5 on antibody cysteine thiols (positions not stated)
B17: anti-BCMA-AB1-Compound 1 (antibody, human IgG1, V domains shown)
VH: B1 VH
VL: B1 VL with A3V, D28A, G29H, T33Y, W59G
modifications: drug-linker Compound 1 on antibody cysteine thiols (positions not stated)
B18: anti-BCMA-AB1-Compound 2 (antibody, human IgG1, V domains shown)
VH: B1 VH
VL: B1 VL with A3V, D28A, G29H, T33Y, W59G
modifications: drug-linker Compound 2 on antibody cysteine thiols (positions not stated)

System: NCI-H929 tumor xenograft
Assay: In vivo efficacy, NCI-H929 tumor xenograft in SCID beige mice
Parameters: species or system CB17 SCID beige mice
Details: Experiment IV, FIG. 6; both regimens
Protocol: Female CB17 SCID beige mice, 6 weeks of age, were purchased from Charles River Laboratories.
Human multiple myeloma tumor cell lines NCI-H929 and OPM2 were cultured and expanded in RPMI 1640 medium supplemented with 10% FBS, 100 units/ml of penicillin and 100 μg/ml of streptomycin at 37° C. in a 5% CO2 humidified environment for a period of 2-3 weeks before harvesting for implantation. Cell viability determined by Trypan blue dye exclusion assay was >90% before implantation. 5 million of OPM2 or NCI-H929 cells in 100 μl of PBS—Matrigel 1:1 (v/v) mixture were inoculated to the right upper flank of each mouse by s.c. injection.
Tumor volume measurement was started at day 14 after tumor cell inoculation and performed twice weekly. The longest longitudinal diameter as length and the widest transverse diameter as width were measured by using a digital caliper. Tumor volume (TV) were then calculated by the formula: TV=[length×(width)^2]/2 and were analyzed in Excel.
The treatment was started when average tumor size reaches ˜400, 200 and 150 mm^3 for NCI-H929 tumor xenografts in Experiment I, III and IV, respectively, or ˜240 mm^3 for OPM2 tumor xenograft in Experiment I.
Mice were euthanized when tumor size reached 2000 mm^3.
After tumor-bearing mice were randomized, anti-BCMA antibody (BCMA-AB1 or BCMA-AB2), anti-BCMA antibody conjugate with Compound 3 (BCMA-AB1-3 or BCMA-AB2-3) or iso-type antibody conjugate with Compound 3 (iso-3) diluted in PBS were administered to mice through i.p. injections. Treatment regimens included 8 mg/kg once, 4 mg/kg Q1W×2 and 2 mg/kg biw×4 of anti-BCMA-AB1 or anti-BCMA-AB1-Compound 3 in Experiment I (FIG. 3); 2 mg/kg biw×4 and 0.67 mg/kg biw×4 of anti-BCMA-AB1 or anti-BCMA-AB1-Compound 3 in Experiment II (FIG. 4); 1, 2, 4, and 8 mg/kg once of anti-BCMA-AB1-Compound 3 or iso-3 in Experiment III (FIG. 5); and 4 mg/kg biw×4 of anti-BCMA-AB2 or 2 and 4 mg/kg biw×4 of anti-BCMA-AB2-Compound 3 in Experiment IV (FIG. 6).
Raw data of tumor measurements were analyzed in Excel. Tumor growth curves were plotted using GraphPad Prism 8.0 software and values were presented as mean t SEM.

Molecule	tumor regression / elimination
B1	induced dramatic and prolonged tumor regressions and eliminated all tumors in about two weeks after initial treatments

Same assay, conditions: Experiment IV, FIG. 6; i.p.; 2 and 4 mg/kg biw×4

Molecule	tumor growth
B1	significantly inhibited tumor growth

Molecular target: T1, Human BCMA (B Cell Maturation Antigen) (human, UniProt Q02223 1-184)
T1 sequence: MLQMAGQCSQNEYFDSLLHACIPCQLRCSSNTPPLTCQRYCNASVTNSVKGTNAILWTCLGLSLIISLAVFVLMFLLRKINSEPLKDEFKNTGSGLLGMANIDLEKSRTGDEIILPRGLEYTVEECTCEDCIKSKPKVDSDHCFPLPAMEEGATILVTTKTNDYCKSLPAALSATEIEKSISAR
Assay: cell-based or functional assay
Details: not given

Molecule	EC50 of cell viability (Cell Titer-Glo), MM.1R (BCMA+) cells, 4-day assay [nM]	EC50 of cell viability (Cell Titer-Glo), NCI-H929 (BCMA+) cells, 4-day assay [nM]
B2	> 1000	13.1
B3	348	5.15
B4	37.7	2.64
B5	16.6	2.38
B6	20.5	3.04

System: BCMA-negative K562
Assay: In vitro cytotoxicity assay (CellTiter-Glo 2.0, 384-well), Example B2
Assay type: cell-based, human
Details: 5-day assays, FIG. 8
Protocol: (§1) The in vitro efficacies of ADCs anti-BCMA-Compound 50, anti-BCMA-Compound 51, anti-BCMA-Compound 52, and anti-BCMA-Compound 53, were compared to anti-BCMA-Compound 3. Anti-BCMA-AB1 clone was conjugated with compounds 50, 51, 52, 53 or 3 and the ADCs were evaluated using the following human cancer cell lines: BCMA-negative K562 and BCMA-positive NCI-H929, purchased from the American Type Culture Collection (ATCC; Manassas, VA).
(§2) Cell Culture Method: The cell lines were cultured in RPMI-1640 medium (Catalog #10-041-CV: Corning) supplemented with 10-20% fetal bovine serum (FBS; Catalog #MT35011CV; Corning) and 1× penicillin-streptomycin (Catalog #30-002-Cl, Corning) and maintained at 37° C. in a 5% C02 humidified environment. Viable cell counts were made by Trypan blue exclusion using a Countess or Countess II automated cell counter.
(§3) The in vitro assays were performed as follows: All cells were harvested by removal of a portion of the cell culture suspension followed by centrifugation at 300 g for 5 minutes, followed by resuspension in cell culture medium (described above in Cell Culture method), viable cell count (as described above in Cell Culture method), and then seeded into 384-well white wall clear bottom plates (Catalog #3765, Corning) at a density of 2,500 cells/well in growth media. Plates were maintained at 37° C. The outer wells of plates contained medium only and were used for background subtraction for the cell viability assay. Working solutions of test articles were prepared at 2× final concentrations with 5-fold serial dilutions in complete growth medium. Cell treatment was performed in either technical triplicates or duplicates and maintained at 37° C. for 120-hour assay. After treatment, cell viability was determined by CellTiter-Glo 2.0 assay (Catalog #G9243; Promega; Madison, WI, USA) based on the manufacturer's instructions. CellTiter Glo reagent reacts with ATP in metabolically active cells to give a luminescent readout that is directly proportional to the number of viable cells. Briefly, plates were removed from the incubator and equilibrated to room temperature before addition of CellTiter Glo reagent. Luminescence was measured using a Tecan Spark microplate reader (Tecan; Mannedorf, Switzerland).
(§4) Data Analysis: For Cytotoxicity assays, raw luminescence data was background subtracted with average luminescence from the outer wells containing medium only and normalized to untreated controls using Excel (Microsoft; Albuquerque, NM). Dose-response relationships and EC50 values were determined based on non-linear regression analysis of normalized data fit to a four-parameter logistic equation using GraphPad Prism 8.0.

Molecule	activity against K562 cells
B7	did not show activity
B8	did not show activity
B9	did not show activity
B10	did not show activity

System: BCMA-positive NCI-H929
Assay: as above
Assay type: cell-based, human
Details: 5-day assays, FIG. 8
Protocol: as §1, §2, §3, §4

Molecule	effect on NCI-H929 cell viability
B7	dose-dependently reduced
B8	dose-dependently reduced
B9	dose-dependently reduced
B10	dose-dependently reduced

Same assay, conditions: NCI-H929

Molecule	enhanced potency compared to ADC-3 [fold]	decrease in potency, ADC-50 (C-lock linkage) relative to ADC-53 (PFP linkage)
B7	~2	–
B10	–	more than 2 fold

Same assay, conditions: Table 7; 120-hour (5-day) assay; AB1 clone

Molecule	EC50 [nM]
B10	0.76

Same assay, conditions: comparison of linker chemistry among C-lock conjugations

Molecule	EC50 order of magnitude
B7	sub-nanomolar
B8	single digit nanomolar
B10	sub-nanomolar

Molecular target: T1, Human BCMA (B Cell Maturation Antigen)
Assay: cell-based or functional assay
Details: not given
Remark: another data set of the same source

Molecule	EC50 of cell viability (Cell Titer-Glo), MM.1R (BCMA+) cells [nM]	EC50 of cell viability (Cell Titer-Glo), NCI-H929 (BCMA+) cells [nM]
B11	> 1000	29.7
B12	129	9.44
B13	259	19.4
B14	> 1000	59
B15	55.3	7.31
B16	143	10

Molecular target: T1, Human BCMA (B Cell Maturation Antigen)
Assay: cell-based or functional assay
Details: not given
Remark: another data set of the same source

Molecule	EC50 of cell viability (Cell Titer-Glo), MM.1R (BCMA+) cells, 5-day assay [nM]	EC50 of cell viability (Cell Titer-Glo), NCI-H929 (BCMA+) cells, 5-day assay [nM]
B17	1.02	0.168
B18	0.987	0.316
